Laboratory results from paper PMC10588558, “On the regulation of human D‐aspartate oxidase” (Protein Science : A Publication of the Protein Society, 2023).

T1: hDASPO (hDASPO_341), human D-aspartate oxidase (Homo sapiens, UniProt Q99489)
T1 construct: gene DDO; full-length canonical isoform, 341 residues; His-tagged (pET11-His-hDASPO), E. coli BL21(DE3) LOBSTR, HiTrap chelating
T1 sequence (Q99489 1-341): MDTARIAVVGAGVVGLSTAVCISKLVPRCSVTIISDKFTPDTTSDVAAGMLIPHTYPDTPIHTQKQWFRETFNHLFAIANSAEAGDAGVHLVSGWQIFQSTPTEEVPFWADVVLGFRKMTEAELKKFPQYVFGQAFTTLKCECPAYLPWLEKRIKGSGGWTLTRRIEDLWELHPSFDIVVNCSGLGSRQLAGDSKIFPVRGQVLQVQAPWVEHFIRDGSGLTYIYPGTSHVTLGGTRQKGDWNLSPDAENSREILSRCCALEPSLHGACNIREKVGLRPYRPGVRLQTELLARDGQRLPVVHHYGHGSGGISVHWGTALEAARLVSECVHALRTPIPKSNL

T2: hDASPO-RED (recombinant hDASPO labelled with the RED-NHS dye) (human, UniProt Q99489 1-341, RED-NHS fluorescent dye on primary amines (lysine residues), degree of labeling ~0.7)
T2 construct: human D-aspartate oxidase, canonical isoform 1 (hDASPO_341, 341 amino acids), UniProt Q99489; encoded by the pET11-His-hDASPO plasmid; Same protein as m1, with the dye; also called labeled hDASPO; source: E. coli BL21(DE3) LOBSTR, purified (HiTrap chelating column), labelled with the RED-NHS labeling kit second generation
T2 sequence (looked up): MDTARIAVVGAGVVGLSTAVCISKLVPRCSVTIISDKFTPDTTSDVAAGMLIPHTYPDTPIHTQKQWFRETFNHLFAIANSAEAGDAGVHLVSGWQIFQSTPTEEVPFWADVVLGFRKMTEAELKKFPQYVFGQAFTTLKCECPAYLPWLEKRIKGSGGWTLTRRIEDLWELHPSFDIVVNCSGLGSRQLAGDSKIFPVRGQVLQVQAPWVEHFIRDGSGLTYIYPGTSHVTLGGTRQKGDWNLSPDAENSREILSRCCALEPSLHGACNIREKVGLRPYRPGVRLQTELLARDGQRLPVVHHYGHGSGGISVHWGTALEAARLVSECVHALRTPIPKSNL


Key:
[1] = biological target: T1, hDASPO (hDASPO_341), human D-aspartate oxidase; experiment: quenching of apoprotein tryptophan fluorescence (~[…] nm), titration; type: binding
[2] = biological target: T2, hDASPO-RED (recombinant hDASPO labelled …); experiment: MST; Monolith NT.115; 10 nM hDASPO-RED with 3 nM to 100 μM label-free pLG72 variant; conditions: both partners purified

Row | Molecule | Kd [1] | Kd [2]
1 | Cc1cc2nc3c(=O)[nH]c(=O)nc-3n(C[C@H](O)[C@H](O)[C@H](O)COP(=O)(O)OP(=O)(O)OC[C@H]3O[C@@H](n4cnc5c(N)ncnc54)[C@H](O)[C@@H]3O)c2cc1C [FAD] | 16 nM | –
2 | pLG72 R30 variant (wild type), recombinant (natural protein, UniProt P59103 1-153, looked up, primate-specific protein pLG72 (18 kDa), wild type with Arg at position 30; kept in 0.06% N-lauroyl sarcosine; also called R30 pLG72; wild-type (R30) pLG72; source: E. coli BL21-Codon plus (DE3)-RIL, recovered from insoluble inclusion bodies, purified) MLEKLMGADSLQLFRSRYTLGKIYFIGFQRSILLSKSENSLNSIAKETEEGRETVTRKEGWKRRHEDGYLEMAQRHLQRSLCPWVSYLPQPYAELEEVSSHVGKVFMARNYEFLAYEASKDRRQPLERMWTCNYNQQKDQSCNHKEITSTKAE | – | 6.8 ± 0.6 µM
3 | pLG72 R30K variant (Arg30Lys), recombinant (natural protein, UniProt P59103 1-153, looked up, primate-specific protein pLG72 (18 kDa), Arg30Lys variant related to schizophrenia susceptibility; kept in 0.06% N-lauroyl sarcosine; also called R30K pLG72; source: E. coli BL21-Codon plus (DE3)-RIL, recovered from insoluble inclusion bodies, purified) MLEKLMGADSLQLFRSRYTLGKIYFIGFQKSILLSKSENSLNSIAKETEEGRETVTRKEGWKRRHEDGYLEMAQRHLQRSLCPWVSYLPQPYAELEEVSSHVGKVFMARNYEFLAYEASKDRRQPLERMWTCNYNQQKDQSCNHKEITSTKAE | – | 3.8 ± 0.4 µM
